Experimental data as given in paper PMC11197462 (Structure (London, England : 1993), 2023).

Assays:
[1] = biological target: human LAG3, four Ig-like extracellular domains (D1-D4; residues 1-449) (human, UniProt P18627); assay: SEC
Fab favezelimab(mut) = assay: SEC

Sequence of human LAG3, four Ig-like extracellular domains (D1-D4; residues 1-449) (P18627 23-449): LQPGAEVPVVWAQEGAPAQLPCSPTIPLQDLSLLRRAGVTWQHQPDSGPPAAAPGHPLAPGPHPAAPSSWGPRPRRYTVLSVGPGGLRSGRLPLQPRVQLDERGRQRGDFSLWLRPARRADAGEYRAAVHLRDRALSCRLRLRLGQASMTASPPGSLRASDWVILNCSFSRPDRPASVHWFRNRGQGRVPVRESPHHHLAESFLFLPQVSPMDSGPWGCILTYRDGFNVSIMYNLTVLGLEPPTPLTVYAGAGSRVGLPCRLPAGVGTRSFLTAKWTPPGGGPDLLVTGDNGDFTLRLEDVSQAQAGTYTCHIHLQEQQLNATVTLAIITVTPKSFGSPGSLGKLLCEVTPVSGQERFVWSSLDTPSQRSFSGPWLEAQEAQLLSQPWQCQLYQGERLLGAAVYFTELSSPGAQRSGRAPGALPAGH

B1: Fab favezelimab(mut) (Fab, V domains shown)
VH: EVLLLQSGPELVKPGTSVKIPCKASGYTFTDYNVDWVKQRHGKGLEWIGDINPNNGGTIYSQKFKGKATLTVDKSSSTAFMELRSLTSEDTAVYFCARNYRWFGAMDHWGQGTSVTVSS
VL: DIVLTQSPASLAVSPGQRATISCKASQSLDYEGDSDMNWYQQKPGQPPRLLISGASNLESGIPARFSGSGSGTDFTVNIHPVEEEDAATYYCQQSTEDPRTFGGGTKLEIK
[1]
  stoichiometry N: 2
Fab favezelimab(mut)
  percent of the protein in the dimer peak: 85%
  stoichiometry N: 2
